Results published in US20200199241A1 (Chugai, published 2020).
Residue numbers refer to the chain shown, from its start.

T1: FcγRIIb (human, UniProt P31994 43-217, limits assumed)
T1 construct: also called FcgRIIb; FcγIIB
T1 sequence: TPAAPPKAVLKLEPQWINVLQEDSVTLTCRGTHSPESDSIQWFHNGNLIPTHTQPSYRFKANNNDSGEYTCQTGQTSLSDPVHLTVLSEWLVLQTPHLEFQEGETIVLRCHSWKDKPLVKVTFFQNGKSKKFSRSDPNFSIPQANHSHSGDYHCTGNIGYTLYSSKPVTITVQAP

T2: FcγRIIa type H (human, UniProt P12318 36-217)
T2 construct: also called FcγRIIaH; FcγRIIH
T2 sequence: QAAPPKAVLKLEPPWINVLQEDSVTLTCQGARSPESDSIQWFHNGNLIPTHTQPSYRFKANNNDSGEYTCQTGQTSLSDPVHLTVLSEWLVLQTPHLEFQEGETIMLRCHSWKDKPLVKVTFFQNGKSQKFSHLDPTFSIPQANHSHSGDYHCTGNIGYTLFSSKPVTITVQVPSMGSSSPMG

B1: IL6R-BP089/IL6R-L (antibody, human IgG1)
heavy: QVQLQESGPGLVKPSETLSLTCAVSGHSISHDHAWSWVRQPPGEGLEWIGFISYSGITNYNPSLQGRVTISRDNSKNTLYLQMNSLRAEDTAVYYCARSLARTTAMDYWGEGTLVTVSSASTKGPSVFPLAPSSKSTSGGTAALGCLVKDYFPEPVTVSWNSGALTSGVHTFPAVLQSSGLYSLSSVVTVPSSSLGTQTYICNVNHKPSNTKVDKKVEPKSCDKTHTCPPCPAPEYLGGDSVFLFPPKPKDTLMISRTPEVTCVVVDVSHEDPEVKFNWYVDGVEVHNAKTKPREEQYNSTYRVVSVLTVLHQDWLNGKEYKCKVSNAALPKPIEKTISKAKGQPREPQVYTLPPSRDELTKNQVSLTCLVKGFYPSDIAVEWESNGQPENNYKTTPPVLDSDGSFFLYSKLTVDKSRWQQGNVFSCSVMHEALHNHYTQESLSLSP
light: DIQMTQSPSSLSASVGDRVTITCRASQDISSYLNWYQQKPGKAPKLLIYYTSRLHSGVPSRFSGSGSGTDFTFTISSLQPEDIATYYCQQGNTLPYTFGQGTKVEIK
notes: IgG1; Fc variant of IL6R-B3; copies: 2 + 2
B2: IL6R-BP133/IL6R-L (antibody, human IgG1)
heavy: B1 heavy with E235D, A328K
light: B1 light
notes: as for B1
B3: IL6R-BP185/IL6R-L (antibody, human IgG1)
heavy: B1 heavy with E235D, G239D, P273G
light: B1 light
notes: as for B1
B4: IL6R-BP187/IL6R-L (antibody, human IgG1)
heavy: B1 heavy with P273G
light: B1 light
notes: as for B1
B5: IL6R-BP129/IL6R-L (antibody, human IgG1)
heavy: B1 heavy with E235D, Y236L, Y298D, A328K
light: B1 light
notes: as for B1
B6: IL6R-BP150/IL6R-L (antibody, human IgG1)
heavy: B1 heavy with G239D, K332R
light: B1 light
notes: as for B1
B7: IL6R-BP183/IL6R-L (antibody, human IgG1)
heavy: B1 heavy with E235D, P273G
light: B1 light
notes: as for B1
B8: IL6R-BP203/IL6R-L (antibody, human IgG1)
heavy: B1 heavy with Y236L, G239D, P273G, A328K, K332R
light: B1 light
notes: as for B1
B9: IL6R-BP199/IL6R-L (antibody, human IgG1)
heavy: B1 heavy with E235D, Y236L, A328D, K332R
light: B1 light
notes: as for B1
B10: IL6R-BP177/IL6R-L (antibody, human IgG1)
heavy: B1 heavy with E235D, G239D, P273G, A328D
light: B1 light
notes: as for B1
B11: IL6R-BP144/IL6R-L (antibody, human IgG1)
heavy: B1 heavy with Y236L, G239D, K332A
light: B1 light
notes: as for B1
B12: IL6R-BP179/IL6R-L (antibody, human IgG1)
heavy: B1 heavy with Y236L, G239D, P273G
light: B1 light
notes: as for B1
B13: IL6R-BP132/IL6R-L (antibody, human IgG1)
heavy: B1 heavy with E235D, Y236L
light: B1 light
notes: as for B1
B14: IL6R-BP145/IL6R-L (antibody, human IgG1)
heavy: B1 heavy with G239D, A328K, K332A
light: B1 light
notes: as for B1
B15: IL6R-BP180/IL6R-L (antibody, human IgG1)
heavy: B1 heavy with Y236L, G239D, P273G, A328K
light: B1 light
notes: as for B1
B16: IL6R-BP197/IL6R-L (antibody, human IgG1)
heavy: B1 heavy with E235D, G239D, H270D, P273G, Y298D, A328D
light: B1 light
notes: as for B1
B17: IL6R-BP184/IL6R-L (antibody, human IgG1)
heavy: B1 heavy with E235D, Y236L, P273G, A328K
light: B1 light
notes: as for B1
B18: IL6R-BP186/IL6R-L (antibody, human IgG1)
heavy: B1 heavy with E235D, G239D, P273G, Y298D
light: B1 light
notes: as for B1
B19: IL6R-BP192/IL6R-L (antibody, human IgG1)
heavy: B1 heavy with E235D, Y236L, H270D, P273G, Y298D, A328K
light: B1 light
notes: as for B1
B20: IL6R-BP149/IL6R-L (antibody, human IgG1)
heavy: B1 heavy with E235D, G239D, Y298D
light: B1 light
notes: as for B1
B21: IL6R-BP196/IL6R-L (antibody, human IgG1)
heavy: B1 heavy with H270D, P273G
light: B1 light
notes: as for B1
B22: IL6R-BP194/IL6R-L (antibody, human IgG1)
heavy: B1 heavy with E235D, G239D, H270D, P273G
light: B1 light
notes: as for B1
B23: IL6R-BP148/IL6R-L (antibody, human IgG1)
heavy: B1 heavy with E235D, G239D
light: B1 light
notes: as for B1
B24: IL6R-BP198/IL6R-L (antibody, human IgG1)
heavy: B1 heavy with E235D, H270D, P273G
light: B1 light
notes: as for B1
B25: IL6R-BP143/IL6R-L (antibody, human IgG1)
heavy: B1 heavy with K332A
light: B1 light
notes: as for B1
B26: IL6R-BP189/IL6R-L (antibody, human IgG1)
heavy: B1 heavy with Y236L, G239D, H270D, P273G
light: B1 light
notes: as for B1

Biological target: T1, FcγRIIb
Test: SPR (Biacore), bound amount, IL6R-BF648/IL6R-L = 100

Row | relative binding activity | Binder
1 | 147 % of control | B1
2 | 137 % of control | B2
3 | 179 % of control | B3
4 | 157 % of control | B4
5 | 138 % of control | B5
6 | 183 % of control | B6
7 | 164 % of control | B7
8 | 185 % of control | B8
9 | 144 % of control | B9
10 | 177 % of control | B10
11 | 121 % of control | B11
12 | 177 % of control | B12
13 | 150 % of control | B13
14 | 152 % of control | B14
15 | 179 % of control | B15
16 | 179 % of control | B16
17 | 171 % of control | B17
18 | 175 % of control | B18
19 | 172 % of control | B19
20 | 173 % of control | B20
21 | 157 % of control | B21
22 | 178 % of control | B22
23 | 176 % of control | B23
24 | 164 % of control | B24
25 | 133 % of control | B25
26 | 177 % of control | B26

Biological target: T3, FcγRIa (human, UniProt P12314 16-292, limits assumed)
T3 construct: also called FcgRIa; CD64
Test: as above

T3 sequence (P12314 16-292 limits assumed): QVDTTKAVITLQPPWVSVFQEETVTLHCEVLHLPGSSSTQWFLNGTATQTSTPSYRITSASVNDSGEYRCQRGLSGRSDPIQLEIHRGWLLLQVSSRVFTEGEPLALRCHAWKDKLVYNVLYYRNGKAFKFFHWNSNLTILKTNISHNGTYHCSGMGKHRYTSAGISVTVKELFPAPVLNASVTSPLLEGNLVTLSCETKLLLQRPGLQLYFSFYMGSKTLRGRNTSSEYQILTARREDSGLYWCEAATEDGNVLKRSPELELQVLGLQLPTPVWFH

Row | relative binding activity | Binder
27 | 43 % of control | B1
28 | 41 % of control | B2
29 | 47 % of control | B3
30 | 68 % of control | B4
31 | 68 % of control | B5
32 | 30 % of control | B6
33 | 83 % of control | B7
34 | 35 % of control | B8
35 | 112 % of control | B9
36 | 57 % of control | B10
37 | 64 % of control | B11
38 | 39 % of control | B12
39 | 91 % of control | B13
40 | 41 % of control | B14
41 | 29 % of control | B15
42 | 71 % of control | B16
43 | 96 % of control | B17
44 | 43 % of control | B18
45 | 109 % of control | B19
46 | 29 % of control | B20
47 | 89 % of control | B21
48 | 69 % of control | B22
49 | 33 % of control | B23
50 | 104 % of control | B24
51 | 86 % of control | B25
52 | 56 % of control | B26

Biological target: T4, FcγRIIIa type V (human, UniProt P08637 17-208, limits assumed)
T4 construct: also called FcγRIIIaV; FcgRIIIaV
Test: as above

T4 sequence (P08637 other isoform, or with tags, fused parts or gaps limits assumed): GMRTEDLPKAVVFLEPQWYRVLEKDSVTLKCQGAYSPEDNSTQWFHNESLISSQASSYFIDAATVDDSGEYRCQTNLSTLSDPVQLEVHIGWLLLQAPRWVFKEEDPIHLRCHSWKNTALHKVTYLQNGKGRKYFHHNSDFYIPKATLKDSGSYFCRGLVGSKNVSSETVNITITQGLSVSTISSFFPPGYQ

Row | relative binding activity | Binder
53 | 136 % of control | B1
54 | 114 % of control | B2
55 | 191 % of control | B3
56 | 124 % of control | B4
57 | 95 % of control | B5
58 | 204 % of control | B6
59 | 113 % of control | B7
60 | 88 % of control | B8
61 | 103 % of control | B9
62 | 186 % of control | B10
63 | 128 % of control | B11
64 | 125 % of control | B12
65 | 120 % of control | B13
66 | 153 % of control | B14
67 | 100 % of control | B15
68 | 206 % of control | B16
69 | 106 % of control | B17
70 | 143 % of control | B18
71 | 118 % of control | B19
72 | 186 % of control | B20
73 | 137 % of control | B21
74 | 249 % of control | B22
75 | 227 % of control | B23
76 | 157 % of control | B24
77 | 114 % of control | B25
78 | 141 % of control | B26

Biological target: T2, FcγRIIa type H
Test: as above

Row | relative binding activity | Binder
79 | 186 % of control | B1
80 | 151 % of control | B2
81 | 446 % of control | B3
82 | 205 % of control | B4
83 | 98 % of control | B5
84 | 770 % of control | B6
85 | 191 % of control | B7
86 | 255 % of control | B8
87 | 116 % of control | B9
88 | 409 % of control | B10
89 | 108 % of control | B11
90 | 226 % of control | B12
91 | 130 % of control | B13
92 | 224 % of control | B14
93 | 203 % of control | B15
94 | 294 % of control | B16
95 | 131 % of control | B17
96 | 368 % of control | B18
97 | 122 % of control | B19
98 | 401 % of control | B20
99 | 195 % of control | B21
100 | 395 % of control | B22
101 | 462 % of control | B23
102 | 188 % of control | B24
103 | 143 % of control | B25
104 | 183 % of control | B26
